Measurements taken from article PMC4979544 (Structure (London, England : 1993), 2016).
Ends that are not written are not given here.

T1: FRFVQELASKEVC-fluorescein peptide
T1 peptide: FRFVQELASKEVC(fluorescein‑5‑maleimide)

T2: YRFVQELASKEVC-fluorescein peptide
T2 peptide: YRFVQELASKEVC(fluorescein‑5‑maleimide)

T3: WRFVQELASKEVC-fluorescein peptide
T3 peptide: WRFVQELASKEVC(fluorescein‑5‑maleimide)

T4: A. tumefaciens ClpS2 (A. tumefaciens, UniProt Q8UD95 1-103, 35S-labeled in the peptide blots only)
T4 sequence (looked up): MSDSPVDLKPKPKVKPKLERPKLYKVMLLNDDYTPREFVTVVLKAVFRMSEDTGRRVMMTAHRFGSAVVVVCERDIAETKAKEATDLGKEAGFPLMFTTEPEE


What was measured:
Experiment in all cases: fluorescence polarisation
[1] = target: T1, FRFVQELASKEVC-fluorescein peptide
[2] = target: T2, YRFVQELASKEVC-fluorescein peptide
[3] = target: T3, WRFVQELASKEVC-fluorescein peptide
A. tumefaciens ClpS2 = target: T4, A. tumefaciens ClpS2

| Binder | ΔΔG against parent ClpS2 [1] [kcal/mol] | ΔΔG against parent ClpS2 [2] [kcal/mol] | ΔΔG against parent ClpS2 [3] [kcal/mol] | Kd (A. tumefaciens ClpS2) [µM] |
| --- | --- | --- | --- | --- |
| A. tumefaciens ClpS2 L28A (natural protein) MSDSPVDLKPKPKVKPKLERPKLYKVMALNDDYTPREFVTVVLKAVFRMSEDTGRRVMMTAHRFGSAVVVVCERDIAETKAKEATDLGKEAGFPLMFTTEPEE | 0.91 | -0.26 | 0.3 |  |
| A. tumefaciens ClpS2 R36M (natural protein) MSDSPVDLKPKPKVKPKLERPKLYKVMLLNDDYTPMEFVTVVLKAVFRMSEDTGRRVMMTAHRFGSAVVVVCERDIAETKAKEATDLGKEAGFPLMFTTEPEE | -0.17 | -0.74 | -0.3 |  |
| LRFVQELASKEVC(fluorescein‑5‑maleimide) [LRFVQELASKEVC-fluorescein peptide] |  |  |  | > 800 |
